According to patent US20100093623A1, “COMPOSITIONS AND METHODS FOR […]-LIKE RECEPTOR ACTIVITY AND USES THEREOF” (Burnham Institute for Medical Research, priority 2008, published 2010):

Molecular target: T1, NLRP1 (Homo sapiens, UniProt Q9C000)
T1 sequence (Q9C000 1-1473): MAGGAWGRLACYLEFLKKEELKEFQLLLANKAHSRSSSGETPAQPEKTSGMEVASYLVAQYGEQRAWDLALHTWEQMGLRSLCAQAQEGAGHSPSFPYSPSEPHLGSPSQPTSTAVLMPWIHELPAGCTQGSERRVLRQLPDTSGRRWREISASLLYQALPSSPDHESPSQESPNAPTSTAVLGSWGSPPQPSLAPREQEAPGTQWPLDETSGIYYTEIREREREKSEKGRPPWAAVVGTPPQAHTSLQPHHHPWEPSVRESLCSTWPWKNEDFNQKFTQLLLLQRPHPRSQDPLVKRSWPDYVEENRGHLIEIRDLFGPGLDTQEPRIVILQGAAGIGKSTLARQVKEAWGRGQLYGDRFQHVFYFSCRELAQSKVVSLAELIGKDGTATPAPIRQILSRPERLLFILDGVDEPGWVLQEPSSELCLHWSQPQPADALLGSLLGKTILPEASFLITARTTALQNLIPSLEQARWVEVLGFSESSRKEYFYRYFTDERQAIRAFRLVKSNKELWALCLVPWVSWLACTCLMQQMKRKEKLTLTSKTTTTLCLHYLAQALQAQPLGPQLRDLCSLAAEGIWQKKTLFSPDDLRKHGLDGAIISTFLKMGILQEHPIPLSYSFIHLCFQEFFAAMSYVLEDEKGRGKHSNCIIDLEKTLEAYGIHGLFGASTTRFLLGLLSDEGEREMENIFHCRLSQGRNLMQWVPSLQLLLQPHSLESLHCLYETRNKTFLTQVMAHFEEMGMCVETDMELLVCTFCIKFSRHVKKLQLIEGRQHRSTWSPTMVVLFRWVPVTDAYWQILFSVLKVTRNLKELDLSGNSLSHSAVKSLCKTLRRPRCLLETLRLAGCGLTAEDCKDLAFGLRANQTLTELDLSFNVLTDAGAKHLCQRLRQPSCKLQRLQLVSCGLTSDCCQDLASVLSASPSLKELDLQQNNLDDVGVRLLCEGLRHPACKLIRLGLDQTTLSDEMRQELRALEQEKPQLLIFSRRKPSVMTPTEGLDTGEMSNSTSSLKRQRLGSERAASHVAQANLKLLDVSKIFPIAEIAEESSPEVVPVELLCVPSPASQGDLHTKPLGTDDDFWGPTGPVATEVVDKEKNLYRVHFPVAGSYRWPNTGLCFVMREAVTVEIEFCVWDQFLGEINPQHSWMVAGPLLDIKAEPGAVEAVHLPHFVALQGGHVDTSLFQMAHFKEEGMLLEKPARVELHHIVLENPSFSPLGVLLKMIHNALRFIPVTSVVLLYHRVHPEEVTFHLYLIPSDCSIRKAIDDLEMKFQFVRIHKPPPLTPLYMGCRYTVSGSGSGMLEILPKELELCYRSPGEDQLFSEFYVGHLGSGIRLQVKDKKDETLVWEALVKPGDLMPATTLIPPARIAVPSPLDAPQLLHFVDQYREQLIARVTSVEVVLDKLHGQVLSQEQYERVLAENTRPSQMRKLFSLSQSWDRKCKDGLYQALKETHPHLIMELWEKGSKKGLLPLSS
Assay: FITC-ATP binding to NLRP1 by fluorescence polarization assay (FPA)
Settings: protein 1 μM at excess; NLRP1 0.125 μM; FITC-ATP 10 nM; MDP-LD 1 μM

B1: Bid: control protein (Bcl-2 family) (protein, UniProt P55957 1-195, looked up)
BH3-interacting domain death …: MDCEVNNGSSLRDECITNLLVFGFLQSCSDNSFRRELDALGHELPVLAPQWEGYDELQTDGNRSSHSRLGRIEADSESQEDIIRNIARHLAQVGDSMDRSIPPGLVNGLALQLRNTSRSEEDRNRDLATALEQLLQAYPRDMEKEKTMLVLALLLAKKVASHTPSLLRDVFHTTVNFINQNLRTYVRSLARNGMD
B1 was tested, and the “reduction of FITC-ATP binding to NLRP1” value was “negligible effects”.
